The record followed here is patent US9803013B2, “Biological materials and uses thereof” (BioInvent International AB, priority 2005, dated 2017).

The subject of data set [1] is carcinoma cell lines initially tested. Put plainly: IgG binding to tumour cell lines, flow cytometry. Details: species or system human. Conditions: all carcinoma cell lines initially tested. The text has this: FIG. 6—Binding of B1, B11, C11 IgG, to tumour cell lines of different origin. The antigen distribution of antigens targeted by the B1, B11, and C11 antibodies on different carcinoma cell lines was investigated by flow-cytometry.
The antigen distribution of human antibody targeted antigens, mainly for B11, on different carcinoma cell lines was investigated. Cells (MCF-7 and MDA MB 435S breast carcinoma, JAR and JEG-3 chorio-carcinoma, A549 lung carcinoma, TCC-SUP urinary bladder carcinoma, MDA MB 435 melanoma, HPAC, PANC-1 and BxPC-3 pancreatic carcinoma, PC-3 and DU145 prostate carcinoma, LS174 T, CaCo2, and Lovo colorectal carcinoma, and THP-1 monocytic leukaemia cells), were washed in PBS, and resuspended at 4×10^6 cells/ml in Complete Medium (200,000 cells/50 […] sample). […] Cells were incubated with either of the antibodies for 1 hour on ice, washed by resuspension in PBS/BSA 0.5%, centrifuged at 1200 rpm for 5 min, and complete aspiration of the supernatants was undertaken. Cells were incubated with PE-conjugated Goat F(ab′)2 anti-Human IgG (Caltag Laboratories, Cat no: H10104), diluted 1/50 in PBS/BSA 0.5%, for 30 min, on ice. Following resuspension of in 300 μl PBS/BSA 0.5%, cells were analysed for IgG binding using a FACScan instrument.
For orientation: A flow cytometer gives signals particle by particle.

The subject of data set [2] is human target tumor cells. The data set is described as follows: ADCC with human effector NK cells. The class given is cell-based. The procedure: NK cells were isolated from purified PBMCs using positive or negative NK cell-isolation kits (Miltenyi Biotec). Target cells were harvested and incubated in medium with or without the respective antibodies (2 μg/mL) for 60 min on ice before. NK cells were washed, diluted in ADCC medium and dispensed together with the respective antibody-coated target cells at varying effector/target cell ratios. All experiments were performed in triplicate. After incubation, TO-PRO-3 dye and counting beads (Invitrogen) were added and cells were analyzed for membrane permeabilization using flow cytometry.
Buffy coats from human donors (ordered through Blodcentralen, Lund) were used to isolate peripheral blood mononuclear cells (PBMCs), and subsequently natural killer (NK) cells. Briefly, peripheral blood components were separated using Ficoll-Paque PLUS (Amersham Biosciences, Sweden) in Leucosep tubes (Greiner Bio-One). […] The purity of the obtained NK cell fractions was >75% as determined by flow cytometry after staining with α-CD56 antibodies (BD Biosciences). […] After incubation, TO-PRO-3 dye and counting beads (Invitrogen) were added and cells were analyzed for membrane permeabilization using flow cytometry.

A short description of data set [3]: Single dose study in the rat (BI-505 pharmacokinetics). Type of data set: in vivo. Conditions: for tmax: iv. An excerpt: AUC0-tlast=area under the serum concentration-time curve from time zero to last quantifiable concentration; AUC0-∞=area under the serum concentration-time curve from time zero to infinity; Cmax=maximum observed serum concentration; tmax=time of maximum observed serum concentration; t1/2=apparent terminal elimination half-life; CL=total serum clearance; Vss=apparent volume of distribution at steady-state; Vz=apparent volume of distribution during the terminal elimination phase. There were six animals per sex and treatment group.
Rats (n=6 per sex and treatment, for a total of 36 rats) were given 0.5, 2.5 or 10 mg/kg BI-505 as a single i.v. treatment. Blood was drawn from the caudal vein of rats at the following time-points: pre-dose, 15 min, 30 min, 1 hr, 2 hr, 8 hr, 24 hr, 2 days, 3 days, 5 days, 8 days, 2 weeks and 3 weeks. BI-505 serum concentrations were determined by ELISA from 15-18 samples per time-point, collected from alternating animals. Pharmacokinetics was calculated from the individual animal serum concentration-time data of BI-505 using non-compartmental analyses. […]

Data set [4] has as its system human peripheral blood B cells. Put plainly: Direct cytotoxic effects (PCD, ADCC, CDC) on normal cells. Conditions: antibody cross-linked or not. The class given is cell-based. As for the experimental part: All experiments were performed in triplicate.
Target cells were harvested as described above (under ADCC heading) and incubated with antibodies at 5 μg/mL for 60 min on ice and then washed. Human serum, normal or heat-inactivated (Sigma, Sweden), was added to tubes and the samples were incubated for 2 hr at 37° C. After completion of incubation, ToPo-Pro-3 (Invitrogen) was added at a final concentration of 0.3 μM and cells were analyzed for membrane permeabilization using flow cytometry.

Data set [5] deals with ICAM-1 (Homo sapiens, UniProt P05362). Put plainly: Binding to recombinant ICAM-1 (ELISA). The procedure:
FIG. 12C BI-505 binds specifically to ICAM-1. (a) Pre-incubation with recombinant ICAM-1, but not VCAM, blocks BI-505 binding to targeted tumor B cells.
(FIG. 21A) BI-505 IgG1, IgG4 and IgG1 N297Q antibodies were analyzed for binding to recombinant ICAM-1 by ELISA.
(In general: An ELISA detects its analyte on a solid surface through an enzyme-linked reagent.)

Data set [6] has as its system RPMI-8226 myeloma cells. The data set is described as follows: NK-cell deficient NOD/Shi-scid/IL-2Rγ−/− mouse model. Type of data set: in vivo. Conditions: RPMI-8226 grafted to NOD/Shi-scid/IL-2Rγ−/− mice. The procedure: (FIG. 20G) Tumor growth in BI-505 or control antibody treated NK-cell deficient NOD/Shi-scid/IL-2Rγ^−/− mice transplanted with RPMI-8226 myeloma cells. ***p<0.001.
Six-eight weeks-old female NOD/Shi-scid IL-2Rγ^−/− mice were obtained from Taconic, Denmark. Five million (5×10^6) RPMI-8226 or U266 tumor cells in 200 μL of RPMI 1640 were intravenously injected into the caudal vein (day 0). The tumor cell injection was performed 2 hr after whole body irradiation of mice (1.5 Gy, Cesium 137, IBL 637). At day 4, mice were randomized into 6 groups and treatment was initiated according to the schedule below.

Sequence of ICAM-1 (P05362 28-532): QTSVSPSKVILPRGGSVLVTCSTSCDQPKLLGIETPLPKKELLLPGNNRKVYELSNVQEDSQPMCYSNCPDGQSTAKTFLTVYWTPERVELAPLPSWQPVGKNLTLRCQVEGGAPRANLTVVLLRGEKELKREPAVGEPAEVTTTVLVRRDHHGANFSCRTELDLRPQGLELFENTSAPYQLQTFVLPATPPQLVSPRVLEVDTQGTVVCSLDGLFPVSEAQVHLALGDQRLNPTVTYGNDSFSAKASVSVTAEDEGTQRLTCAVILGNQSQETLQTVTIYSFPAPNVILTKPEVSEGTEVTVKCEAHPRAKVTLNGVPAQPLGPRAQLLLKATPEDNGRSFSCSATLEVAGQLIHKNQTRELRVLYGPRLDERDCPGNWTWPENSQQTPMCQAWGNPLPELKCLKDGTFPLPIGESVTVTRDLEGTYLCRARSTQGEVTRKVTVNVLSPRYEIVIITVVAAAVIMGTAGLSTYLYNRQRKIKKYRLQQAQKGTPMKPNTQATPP

B1: C11: fully human IgG1 antibody specific for surface IgM; VH and VL sequences of FIG. 11 (SEQ ID NOs. 10 and 12) (antibody, listed as Homo sapiens, V domains shown)
VH: EVQLLESGGGLVQPGGSLRLSCAASGFTFGSYEMNWVRQAPGKGLEWVSVIYSGGSTYYADSVEGRFTISRDNSKNTLYLQMNSLRAEDTAVYYCARDTNPYYYYGMDVWGQGTLVTVSS
VL: QSVLTQPPSASGTPGQRVTISCSGSSSNIGNNAVNWYQQLPGTAPKLLIYRNNQRPSGVPDRFSGSKSGTSASLAISGLRSEDEADYYCQSYDSSLNGQVFGGGTKLTVLG
With B1, in data set [1], the “binding” value is “lack of binding”.

B2: B11: fully human IgG1 antibody specific for ICAM-1; VH and VL sequences of FIG. 10 (SEQ ID NOs. 6 and 8) (antibody, listed as Homo sapiens, V domains shown)
VH: EVQLLESGGGLVQPGGSLRLSCAASGFTFSNAWMSWVRQAPGKGLEWVAFIWYDGSNKYYADSVKGRFTISRDNSKNTLYLQMNSLRAEDTAVYYCARYSGWYFDYWGQGTLVTVSS
VL: QSVLTQPPSASGTPGQRVTISCTGSSSNIGAGYDVHWYQQLPGTAPKLLIYDNNNRPSGVPDRFSGSKSGTSASLAISGLRSEDEADYYCQSYDSSLSAWLFGGGTKLTVLG
What is called Cmax is the highest concentration seen after dosing. For orientation: half-life means the time needed for the level to fall by half in the phase considered. The low end stands for fast loss, the high end for slow loss. With B2, the “ADCC” value in data set [2] is “conferred cytotoxicity in an Fc-dependent manner”. For the same molecule, the Cmax in data set [3] (Males, 10 mg/kg single IV) is 281 µg/mL. Besides, in data set [3] (in vivo), the “anti-BI-505 antibodies” value is given as “no anti-BI-505 antibodies were detected”, the half-life is 12 to 13 days and the “half-life corresponding in man” value is on record as 2-3 weeks. In data set [3] (in vivo, 0.5 mg/kg), this molecule displayed a tmax of 15 min. The molecule further showed a tmax in data set [3] (in vivo, 10 mg/kg) of 30 min. In addition, the “cell death in normal cells” value in data set [4] is on record as “did not induce cell death”. Also, in data set [5], the “binding to recombinant protein” value was “binds dose-dependently”. In addition, in data set [6], the “antitumor activity” value was “significant antitumor activity”.
